The supplement of paper PMC9876800

System: peptide library, one residue held at a place counted from the S/T acceptor
Experiment: relative phosphorylation of the sub-library (ratio to the mean residue at this position); higher = residue favoured
Details: human
Summary of the method: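 Human or orthologue kinase constructs, purified and recombinant, were incubated under kinase-specific conditions in 384-well plates with biotinylated degenerate peptide sub-libraries. Each sub-library fixed one residue at one position around a central Ser/Thr. Incubations lasted 90 min with peptides at 50 μM and 50 μM ATP spiked with γ-32P-ATP, after which spots on streptavidin membranes were phosphorimaged and quantified by densitometry. Relative sub-library phosphorylation is a ratio to the mean residue at that position.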

Sequence of FAM20C, construct: aa23-end (Q8IXL6 23-584, looked up): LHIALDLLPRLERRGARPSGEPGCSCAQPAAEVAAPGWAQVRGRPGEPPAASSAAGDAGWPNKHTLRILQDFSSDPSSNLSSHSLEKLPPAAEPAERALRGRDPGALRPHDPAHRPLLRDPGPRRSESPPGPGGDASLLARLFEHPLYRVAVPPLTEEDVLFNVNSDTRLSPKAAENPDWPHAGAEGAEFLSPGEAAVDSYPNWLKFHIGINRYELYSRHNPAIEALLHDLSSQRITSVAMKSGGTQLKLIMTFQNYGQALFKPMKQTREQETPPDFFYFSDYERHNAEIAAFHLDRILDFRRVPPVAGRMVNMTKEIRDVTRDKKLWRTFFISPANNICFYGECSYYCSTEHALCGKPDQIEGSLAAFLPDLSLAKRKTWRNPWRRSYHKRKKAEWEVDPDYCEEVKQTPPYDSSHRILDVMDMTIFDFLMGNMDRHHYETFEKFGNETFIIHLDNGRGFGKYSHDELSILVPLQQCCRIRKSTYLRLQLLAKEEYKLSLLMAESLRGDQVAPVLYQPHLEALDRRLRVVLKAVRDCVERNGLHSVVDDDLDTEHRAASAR

EIF2AK2, construct: aa252-end (from UniProt P19525)
relative phosphorylation
Details	at +1	at +2	at +3	at +4	at -1	at -2	at -3	at -4	at -5
A fixed	0.837	0.775	0.867	0.96	0.739	1.04	0.961	1.13	1.13
D fixed	0.526	0.705	0.665	0.818	0.726	0.939	1.13	1.05	0.979
E fixed	0.509	0.688	0.599	0.844	0.64	0.912	1.18	0.954	0.945
F fixed	0.695	0.616	1.02	0.701	0.681	0.989	0.774	1.06	0.853
G fixed	1.12	1.55	1.46	1.23	0.724	0.999	1.51	1.13	1.21
H fixed	0.762	1.2	1.16	1.24	1.21	1.14	0.95	1.02	1.07
I fixed	1.01	0.648	0.9	1.04	1.16	0.793	0.89	0.805	0.995
K fixed	1.93	1.5	1.76	1.36	1.93	1.03	1.11	1.15	1.15
L fixed	1.01	0.541	0.896	0.73	0.915	1.32	0.779	0.815	0.767
M fixed	1.25	0.643	0.779	0.935	1.03	1.01	0.961	0.868	0.884
N fixed	1.04	1.78	0.876	0.972	1.18	1.2	0.99	0.937	1
P fixed	0.4	0.644	0.966	0.815	0.648	0.963	0.969	0.954	0.93
Q fixed	1.22	0.845	0.925	0.811	0.95	1.02	0.855	0.92	0.855
R fixed	2.57	2.68	1.7	1.75	1.97	1.09	1.5	1.21	1.41
V fixed	0.897	0.708	0.798	0.812	1.07	0.863	0.819	0.875	0.824
W fixed	0.637	0.715	0.863	1.06	0.64	0.87	0.804	1.24	0.947
Y fixed	0.585	0.757	0.768	0.927	0.771	0.818	0.821	0.878	1.05
pThr fixed	0.58	0.605	0.729	0.854	0.677	0.853	1.04	0.992	0.947
pTyr fixed	0.489	0.897	0.717	0.853	0.629	0.933	0.955	0.735	0.968

FAM20C, construct: aa23-end (from UniProt Q8IXL6)
relative phosphorylation
Details	at +1	at +2	at +3	at +4	at -1	at -2	at -3	at -4	at -5
A fixed	1.77	0.243	0.795	0.935	1.27	1.28	0.91	1.14	1.14
D fixed	1.03	0.708	2.21	1.67	2.77	1.99	1.61	1.68	1.46
E fixed	2.15	13	2.58	1.91	1.4	1.19	1.66	1.52	1.31
F fixed	0.537	0.173	0.624	0.825	0.423	0.95	0.693	0.737	1.04
G fixed	1.61	0.214	0.518	1.45	1.31	1.28	1.45	1.26	1.05
H fixed	1.39	0.25	0.863	0.874	1.29	1.08	0.95	1.02	1.43
I fixed	0.52	0.155	1.13	1.02	0.468	0.663	0.619	0.789	0.751
K fixed	0.822	0.185	0.516	0.607	0.589	0.647	0.719	0.745	0.896
L fixed	0.54	0.159	1.07	0.788	0.485	0.581	0.968	0.826	0.832
M fixed	1.11	0.205	0.884	0.92	0.555	0.673	0.851	0.887	0.761
N fixed	1.08	0.277	0.845	0.806	2.19	1.8	1.2	1.08	1.14
P fixed	0.253	0.18	0.252	0.777	0.303	1.11	1.01	1.06	0.843
Q fixed	1.26	0.454	1.17	0.863	0.934	0.809	1.07	0.997	0.907
R fixed	0.958	0.2	0.603	0.571	0.685	0.612	0.918	0.75	0.809
V fixed	0.618	0.179	1.36	1.02	0.808	0.701	0.682	0.876	0.959
W fixed	0.696	0.208	0.831	1.05	0.839	0.795	0.861	0.895	1.01
Y fixed	0.65	0.199	0.76	0.913	0.681	0.851	0.835	0.736	0.66
pThr fixed	0.641	0.744	1.28	3.06	0.797	1.09	1.49	1.38	1.05
pTyr fixed	0.699	1.02	2.15	2.74	1.08	1.96	1.64	1.1	1.19
